In US20070060521A1:

Target: IL-6 receptor on U266 human myeloma cells (human) (UniProt P08887)
Experiment: cell-based or functional assay

Sequence of IL-6 receptor on U266 human myeloma cells (human) (P08887 20-468): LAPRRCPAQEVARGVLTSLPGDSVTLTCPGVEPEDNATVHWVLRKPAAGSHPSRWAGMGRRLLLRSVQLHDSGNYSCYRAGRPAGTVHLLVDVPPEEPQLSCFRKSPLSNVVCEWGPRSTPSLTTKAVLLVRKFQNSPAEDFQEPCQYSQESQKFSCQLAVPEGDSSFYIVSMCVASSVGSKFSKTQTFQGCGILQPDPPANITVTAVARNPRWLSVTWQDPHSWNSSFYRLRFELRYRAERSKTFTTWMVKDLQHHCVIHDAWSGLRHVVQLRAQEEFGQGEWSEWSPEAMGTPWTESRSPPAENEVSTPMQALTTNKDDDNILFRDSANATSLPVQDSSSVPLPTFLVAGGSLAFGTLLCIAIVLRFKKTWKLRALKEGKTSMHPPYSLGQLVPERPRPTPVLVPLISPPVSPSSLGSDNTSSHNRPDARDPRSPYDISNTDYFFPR

Substance: Sant7, IL-6 superantagonist (ligand)
- reduction of constitutive STAT3 DNA-binding (EMSA) in U266 cells: 70%
